This data set concerns T1, COc1ccc2c(CC(=O)N3CCC[C@H]3C(=O)N[C@@H](CC(C)C)C(=O)NCC(=O)N[C@@H](CC(C)C)C(=O)N[C@@H](CNc3ccc([N+](=O)[O-])cc3[N+](=O)[O-])C(=O)N[C@@H](C)C(=O)N[C@@H](CCCNC(=N)N)C(N)=O)cc(=O)oc2c1.
T1 construct: made in house; host or cells: Sf9 and High Five insect cells
As to the kind of experiment: Determination of Km values. It is filed as biochemical, human. The conditions noted are these: other: MMP-9(MT); 1% DMSO; n = 3; pH 7.5.

Sequence of Mag-Trypsin activated recombinant MMP-9 (MMP-9(MT)) (Homo sapiens) (chain, as listed by the source): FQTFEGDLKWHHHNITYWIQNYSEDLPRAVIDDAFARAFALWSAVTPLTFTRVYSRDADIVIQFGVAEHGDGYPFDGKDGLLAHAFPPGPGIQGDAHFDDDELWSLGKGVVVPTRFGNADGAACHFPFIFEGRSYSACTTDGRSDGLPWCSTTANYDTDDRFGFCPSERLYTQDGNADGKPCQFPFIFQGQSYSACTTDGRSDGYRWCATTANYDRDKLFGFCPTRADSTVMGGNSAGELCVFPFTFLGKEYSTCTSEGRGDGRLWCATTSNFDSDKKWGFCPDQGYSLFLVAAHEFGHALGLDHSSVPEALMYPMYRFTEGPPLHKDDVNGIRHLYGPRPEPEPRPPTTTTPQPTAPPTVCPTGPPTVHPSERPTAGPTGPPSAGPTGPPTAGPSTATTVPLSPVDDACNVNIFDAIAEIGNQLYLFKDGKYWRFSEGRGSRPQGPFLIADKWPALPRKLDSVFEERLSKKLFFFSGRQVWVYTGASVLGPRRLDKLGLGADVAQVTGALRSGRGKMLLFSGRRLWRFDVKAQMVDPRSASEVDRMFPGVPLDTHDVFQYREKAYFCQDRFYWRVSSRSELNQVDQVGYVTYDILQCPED
Method: Determination of Km values. […] Substrate concentrations used were 1–10 µM in a total volume of 100 µL of 0.1 M Hepes pH 7.5 containing 10 mM CaCl2, 0.005% Brij-35 and 1.0% DMSO. […] Initial rate experiments were performed as described above to determine enzyme reaction velocities using a LS 50 Luminescence Spectrometer and the FL WinLab Software Package (Perkin Elmer). The Km and s.d values were calculated with Graph Pad Prism 5 using the Michaelis-Mention equation. […] During these experiments, reactions were monitored for only one minute, and initial reaction velocities were determined from the activity curves.

With “Mag-Trypsin activated recombinant MMP-9 (MMP-9(MT)) (Homo sapiens)”, the Km is reported as 2.7 ± 0.5 µM.

Usually Km stands for the substrate concentration at which the rate is half of its maximum.

(Values after PMC12316308, “Interactions of substrates and phosphinyl containing inhibitors with bacterial and human zinc proteases” (PLOS One, 2025).)
